Laboratory results: the DeepSol protein solubility set

Experiment: soluble on expression in E. coli; label from the status in PepcDB or PDB records

Question: With “MAEIKHYQFNVVMTCSGCSGAVNKVLTKLEPDVSKIDISLEKQLVDVYTTLPYDFILEKIKKTGKEVRSGKQLAREVILAVHGMTCSACTNTINTQLRALKGVTKCDISLVTNECQVTYDNEVTADSIKEIIEDCGFDCEILRDS” as the sequence, how does the “soluble on expression in E. coli” value read?
Answer: soluble

Question: For “MTVDTEKQQVVRPRNEIAAADCWDVSPLYPNREDWKADLDSFGLKTDGSPTWPELQATQYQLEDSESLLSLLTKLFSVERKLDKLYVYAHLVHDQDITNQEGVADLKSITHLHILFSEEISWIQPALIGLSEPIIAQHLSAPCLAPYRFYLEKIFRLSMHTGTPGEEKILASAFAPFEVASKAFSSLSDSEIPFGQAMDSEGNSHPLSHALASLYMQSTDRELRKTAYLAQCERYYNYRHTFANLLNGKIQAHLFYAKNKKYGSCLESALYHNNIPTTVYTNLMDIVKKNASLITKYYSLKQKALNIKDFHFYDVYAPLSQSEEKKYSYEEAVDLIYDSLSPLGTEYVDILKQGLTTEGWVDKYENLNKRSGAYSSGCYDSYPYILLNYTGTLYDVSVIAHEGGHSMHSYFSRKNQSFHDAQYPIFLAEIASTLNEMLLMDSMLKKSNSKEEKITILTRCLDTIFSTLFRQVLFASFEYEVHSAAEQGIPLTEEYLSSTYKNLQNDFYGGIITFDTLSNIEWARIPHFYYNFYVYQYATGIIAALCFAERILNKEDNALESYMNFLKSGGSDFPLEILKKSGLDMATSEPIYKAFSFIERKIQELSSLI”, which “soluble on expression in E. coli” value is on record?
Answer: soluble

Question: With “MGSDKIHHHHHHMHRVGFTTTIPLEIVLAAGMTPVDLNNVFITSPHATRMIEEAEVDGFPRSICGWIKGIYAAVVECGIHELIAVTEGDCSNTRALMEVLSLKGVETIPFAYPHDRDPAGLRFEIEKLMRRFGVGWDAVKLSRERLGRIRRKVKEIDRLTWDENRVSGQENHYFQVCTSDMNSDPDRFEAEVDAFLEKARQREPFRQRLRLAYIGVPPIMTDLYPFVETLDARVVFNETQRQFAMPFDTPDLVEQYRAYTYPYDIFHRLSDILMELERRKVDAVIHYVQSFCFRQIEDMIVRQKLPLPVLTLEGDKPGPLDARTRIRIEGFLEMLA” as the sequence, how does the “soluble on expression in E. coli” value read?
Answer: not soluble

Question: With “MAHHHHHHMMPRSENQKEEEEWELHPLFLSKIPNKKDIDKNPALSALITLINEEEEKEVFSYEPRRKNLKKKITEKGQIIYKKDRRNLYEPYQQNKNDKINYFEKKNFGGNADISKEEEVLDVEMDEEGTTVTTAEQGGDHSSQNVSNNQEATDQTSIGEVLVCLSMMNLKQ” as the sequence, how does the “soluble on expression in E. coli” value read?
Answer: soluble

Question: Which “soluble on expression in E. coli” value does the source give for “MSLFINKEAELQWVREYARRSHATPFVIYGPEGCGKTALALEAVRRFSSWYAGGIALYIDGKARRAAEAVKSNVNIGDVLAEVGGLAGSVGRSAARLAVWLLGKIVEKIAERFAPMNILVVDELFSAVGVSEGALAVKYAKELGDRVLRSKKAELGEIPKPLAEASVSYLIFSSEGSSRRELSRHNWAHIALMWNMGERGFQQLGEILGAPDFSAAWRLCGGQPPLPFPISRAGLGRGKIPNSNREGHHHHHH” here?
Answer: soluble

Question: With “MAAYRADDDYDFLYKVVLIGDSGVGKSNLLSRFTRNEFSLESKSTIGVEFATRSIHVDEKIVKAQIWDTAGQERYRAITSAYYRGAVGALLVYDVTRHVTFENVERWLKELRDHTEANIVIMLVGNKADLRHLRAVSTEDAKAFAERENTFFMETSALEALNVENAFTEVLSQIYRVASKKALDIGDDHTTLPKGQSINVGSKDDVSEVKKVGCCSS” as the sequence, how does the “soluble on expression in E. coli” value read?
Answer: soluble

Question: For “MLRPYVAEWFRSTYGSFTEPQRQAIPLVKQGKSVLITSPTGTGKTLAAFLGVIDEILFLMENRWEEKGILAVYVSPLRALNNDIRRNLEEPLRGIEEKAREMGLEPPRVKVAVRTSDTTPYEKQKMVKDPPHILITTPESLAAALAAPKFRERLSTVKWVVLDEIHELASNKRGAHLMVSVERLEELVREAGGKPLRRIGLSATIAPLDVVANFLGGFDDEGRPREVHIVDARFAKPIDIKVITPDVDLLRDPPDKINEAIYRKIAELVKQHRTTLIFTNTRSATERVVHKLKQILVKEGIASEDQIEAHHSSLSRNLRLDVEERLKRGELKVVVSSTSLELGIDIGYIDLVILLSSPKSVSRLLQRVGRAGHRIRDVSKGRLIVVDRDDLVECSVLADCAMKKFIDRVRIPMKPLDVLAQHIVGMSIEKKWRLEDAYRVVKRAYNFKDLSFEEFMSVVRFLAGKHGLEGEGVYSKIWLDEEEGLFGRKKSARMIYLLNVGVIPDETKIRVYTRDGKYVGDLEEEFVEILVPGDVFVLGGRTYRFLKSEGLRVIVERADDARPTVPSWFSEMLPLSFDSALKVGEFRRVFSALASSNPRAAVEKLVKEYYLEERAAATIVEYILEQLGYIGVVPSDKLVLIEYFPYEDGWGIVFHTLFGRRVNDALSRAYAVALSRRIGLPVRVAVTDNGFMLTVSEAGKPDASLLEKLIRDVTPENIRGILEEAISRTELMKRRFKHVAARMFIVLRRYKGKEVSPERLQLNSQKLLEVFLEEMKDSPPIRETFREILEDYMDIGAAGKVLEWIRKGEIEIVIKGPLPYPSPMAHSIVVRGYSDVVLMEDRRKMLMILREKVLEYIRKGRAAPTWVGGDGKGRLLKEEQ”, which “soluble on expression in E. coli” value is on record?
Answer: soluble

Question: For “MPLEEGVLIDCTLGLGGHSKALLSQKPHLKLIGIDKDKFAQEIAKERLKAFEGRYNLLSGGFAKRFKEALETHNKEIKGVLVDLGVSSLQLDDDNRGFNFHSHTLDMRMDLESELNAQKVINSYPIVALEKIFRDYGEIKEYKKIAHKIAERRAKKPFKNAKDLSEFLSSFSKNKKIHPATLVFQAVRIEVNSELEELKEFLQCARNLKGAILCVISFHSLEDALVKNAFKDYAKNCICDPSSFKCACSNNHALGEILTKKPITPSPEEIKNNRRSRSAKMRVFQFKPLEHHHHHH”, which “soluble on expression in E. coli” value is on record?
Answer: not soluble

Question: Which “soluble on expression in E. coli” value does the source give for “MHSFPPLLLLLFWGVVSHSFPATLETQEQDVDLVQKYLEKYYNLKNDGRQVEKRRNSGPVVEKLKQMQEFFGLKVTGKPDAETLKVMKQPRCGVPDVAQFVLTEGNPRWEQTHLTYRIENYTPDLPRADVDHAIEKAFQLWSNVTPLTFTKVSEGQADIMISFVRGDHRDNSPFDGPGGNLAHAFQPGPGIGGDAHFDEDERWTNNFREYNLHRVAAHELGHSLGLSHSTDIGALMYPSYTFSGDVQLAQDDIDGIQAIYGRSQNPVQPIGPQTPKACDSKLTFDAITTIRGEVMFFKDRFYMRTNPFYPEVELNFISVFWPQLPNGLEAAYEFADRDEVRFFKGNKYWAVQGQNVLHGYPKDIYSSFGFPRTVKHIDAALSEENTGKTYFFVANKYWRYDEYKRSMDPGYPKMIAHDFPGIGHKVDAVFMKDGFFYFFHGTRQYKFDPKTKRILTLQKANSWFNCRKN” here?
Answer: soluble

Question: With “MGSDKIHHHHHHMITGFASSLYKKYEGSTFELLADTVFSALEMAGLDKNYVDGIYLTYLPGTFDGYANSHFFTNQVAQYLGIRPKFTQIFDYGGASALSMIHRAYKAIKAGEGETILCIVGGKATELRNKGVTVDAIDKAYPNVSLTPFDRLFRGLNDLNPVSDYALVANRHKYLFKSTDEQRALIAVRQRFNAMQNSKAMFKDPLTIEQVLKSPLVSYPLHLLEIVYPIDGFHVFVVSKRSSKSALTNIDILGYGEAHWPFMPTELDEIVYTPAVESSKGLLNGRIDAFELYDSFTITVMLQVEDIGLAEKGKGGSFFENHDTTFKGDVPINTGGGSLNTGQPAYMSGGVILEEALLQLNDMADGHQVKGTDVVFLNGIGGWNRSHSVSLVLGEKK” as the sequence, how does the “soluble on expression in E. coli” value read?
Answer: not soluble

Question: For “METAWSNILNYKNVSDRYILTEKDKKGAFTRQYFEVYEARLKELKPRILENAEREIGKGKFTHSQLSDAKQDEEIFVVGVIVKRIAARPSILKSLLNEDKVAYDDYEEDAEEDEVKRYAGSIEDRIELESDKQTVRLEGNISMDECATGCCVGVLGKLGKEGVFHVNRLVWPSVKVPKKVAVDGTIAFVSGLDLTGDLEDDRLTISGLEFMADWMNVQVGNENQCPPIDRLVVIGPLVETKSNGCDVQSVVRTLTLSRAEKHSSTASLITVDKIINSIAEKPLVNTVDVTPGVGDPCSSMWPLPPIHRVCLPRCGMSDKKVNLVTNPYEFEVNGLRVMTMSGENVSELLRTSLKWTGADAIENIIKWQHVAPNCPDTLDAFPVAERDPLIMDITPHVIICGNQPHAEFRHIPIDGSNCLVVCLPKFSKTRVACFLNLSDLSLKWQNFDHQF”, which “soluble on expression in E. coli” value is on record?
Answer: not soluble

Question: For “MGSDKIHHHHHHMANSRKHLIYLVYGRQTYHQEALFSIASAFAHLRDGAAHGLTVRVYTDDPSPYAGLPVQVREVTAEELVAWCQPHGYHFRAKHVALRDALEEADQALLIDTDTFFHSSPLRLFDRIQPGSLLCNAIGARYGEHRNFPLYRDLSPYLFERGWADDEMHQLNSGVIGLPREEAKILDRSLELMDELYPIANGAYTLEEFVLAVAAHKRLELVGCTDLIHHYWSRKQLFRAKIQAWLCKHGSSLLSAAALDDTLKVTDRLPRPPRAKRLLYKLGTLPLPAPMRQFSIELLYGCHEYSNEFDRACGPVWWEKAATNAIERYPQEPIAEQIEDWLNHSLLRNLLGSRANEIRQHLRQRDLL”, which “soluble on expression in E. coli” value is on record?
Answer: not soluble

Question: For “MFSKVNNQKMLEDCFYIRKKVFVEEQGVPEESEIDEYESESIHLIGYDNGQPVATARIRPINETTVKIERVAVMKSHRGQGMGRMLMQAVESLAKDEGFYVATMNAQCHAIPFYESLNFKMRGNIFLEEGIEHIEMTKKLTSLN”, which “soluble on expression in E. coli” value is on record?
Answer: not soluble

Question: Which “soluble on expression in E. coli” value does the source give for “MSGWPRIYYKLLNLPLSILVKSKSIPAEPAQELGLDTSRPIMYVLPYNSKADLLTLRAQCLAHDLPDPLEPLEIDGALLPRYVFIHGGPRVFTYYTPKEESVKLFHDYLDLHRSNPALDVQMVPVSVMFGRAPGREKGEDNPPLRMLNGVQKFFAISWLGRDSFVRFSPSVSLRRMADEHGTDKIIAQKLARVARMHFARQRLAAVGPRLPARQDLFNKLLASKAIARAVEDEARSKKISHEKAQQNAIALMEEIAANFSYEMIRLTDRILGFTWNRLYQGINVHNAERVRQLAHDGHEIVYVPCHRSHMDYLLLSYVLYHQGLVPPHIAAGINLNFWPAGPIFRRLGAFFIRRTFKGNKLYSTVFREYLGELFSRGYSVEYFVEGGRSRTGRLLDPKTGTLSMTIQAMLRGGTRPITLVPIYIGYEHVMEVGTYAKELRGATKEKESLPQMLKGLSKLRNLGQGYVNFGEPMPLMTYLNQHVPEWRESIDPIEAIRPAWLTPTVNSIAADLMVRINNAGAANAMNLCCTALLASRQRSLTREQLTEQLDCYLDLMRNVPYSTDSTVPAASAGELIAHALQMNKFEVEKDTIGDIIILPREQAVLMTYYRNNIAHMLIMPSLMAAIITQHRRISRDALQQHVEALYPMLKAELFLRWEREELASVIDALASEMQRQGLITLQDDELHINPTHSRTLQLLAAGARETLQRYAITFWLLSANPSINRSTLEKESRTVAQRLSVLHGINAPEFFDKAVFSSLVLTLRDEGYISDTGDAEPAETMKIYQMLADLITSDVRLTIESATQGE” here?
Answer: not soluble

Question: With “MGSDKIHHHHHHMITQINIENFKCFSKKNMPVGALTMLTGFNAAGKSTALQALLLISQMVSGRHGDVSAALNGELVRMGTPGDVLRSDGSKEIKIGIETVEQKIQWTLVPSINLNNSLDLKDIHWASPNGVGDLTNISCNTSFNGLTPNEAPSDLSNLANEISDLIFISAVRMGTQDVYPSPTEPSPIRANVGMRGDYAPWWYEQHLDYEIDQKRVHSSEKALTLRRQLNAWLDQLFPGAEANAQKLPNTDLIQLLFRNSKTDVWRKPANIGYGLTYAFPILVAGLLARPGQLLIIDSPEAHLHPLGQSNMGKFLAKIAASGVQVLVETHSDHVLNGARLAVKSRVIDSRDVGILFFNRPPQKDGDPEHIIAPSIDKEGNLSDWPLGFFDQAENDLAVLADWG” as the sequence, how does the “soluble on expression in E. coli” value read?
Answer: not soluble

Question: For “MAVRPVLAVGSYLPHAPWPWGVIDQAARVLLPASTTVRAAVSLPNASAQLVRASGVLPADGTRRAVLYLHGGAFLTCGANSHGRLVELLSKFADSPVLVVDYRLIPKHSIGMALDDCHDGYRWLRLLGYEPEQIVLAGDSAGGYLALALAQRLQEVGEEPAALVAISPLLQLAKEHKQAHPNIKTDAMFPARAFDALDALVASAAARNQVDGEPEELYEPLEHITPGLPRTLIHVSGSEVLLHDAQLAAAKLAAAGVPAEVRVWPGQVHDFQVAASMLPEAIRSLRQIGEYIREATG”, which “soluble on expression in E. coli” value is on record?
Answer: soluble
